The source of these data is patent US8158851B2, “Transgenic high tryptophan plants” (Monsanto Technology LLC, priority 2002, dated 2012).

The subject of data set [1] is Agrobacterium tumefaciens AS. Description: Anthranilate synthase enzyme assay and kinetic analysis of purified enzymes. Particulars: for Km: 25° C. In kind it is biochemical. As to the method:
Agrobacterium tumefaciens AS wild type and mutant enzymes were expressed in E. coli as described in Example 1. The purification of all the Agrobacterium tumefaciens AS enzymes, including wild type and mutants thereof, was performed at 4° C. The cells (approximate wet weight of 1 g) were suspended in 20 ml of purification buffer (50 mM potassium phosphate, pH 7.3, 10 mM MgCl2, 10 mM 2-mercaptoethanol, 10% glycerol) and lysed by ultrasonication (Branson sonifier Cell Disruptor, W185). Supernatant was collected after centrifugation of the homogenate at 20,000×g for 15 min. The supernatant was subjected to ammonium sulfate fractionation (30 to 65% saturation). The precipitate was collected after centrifugation at 20,000×g for 15 min and dissolved in 3 ml of the purification buffer and then loaded as a whole on an Econo-Pac 10DG desalting column, pre-equilibrated with the same buffer. Fractions containing the enzyme were detected by the developed assay and pooled. The pooled enzyme (4.3 mls) was loaded on a 10 ml DEAF Sephacel (Pharmacia Biotech) column (1.5×7.5 cm) equilibrated with the same buffer. The column was washed with 30 ml of the purification buffer and the enzyme was eluted with 30 ml of 50 mM NaCl in the same buffer. Fractions containing high AS activity were pooled and precipitated by 65% ammonium sulfate saturation and isolated and desalted as above. Fractions containing the enzyme were pooled and stored at −80° C.
The standard assay for Agrobacterium tumefaciens AS was performed at 25° C. in an assay buffer containing 100 mM potassium phosphate, pH 7.0, 10 mM MgCl2, 1 mM dithiothreitol, 200 μM chorismate and 10 mM L-glutamine. The reaction was started by adding 30 μl of enzyme to the reaction mixture and mixing. The formation of anthranilate was directly monitored by the absorbance increase at 320 m for 3 minutes. Initial rate of reaction was calculated as unit absorbance increase per second based on the slope of the absorbance change over the reaction time. Km for chorismate (Km^Cho) was determined in the total volume of 1 ml assay buffer containing 100 mM potassium phosphate, pH 7.0, 10 mM MgCl2, 1 mM dithiothreitol with 10 mM L-glutamine and varying the concentration of chorismate between 2.5-100 μM chorismate. The Km for glutamine (Km^Gln) was determined in the total volume of 1 ml assay buffer containing 100 mM potassium phosphate, pH 7.0, 10 mM MgCl2, 1 mM dithiothreitol with 200 μM chorismate and varying the concentration of L-glutamine between 0.1-2 mM L-glutamine. IC50 for tryptophan (IC50^Trp) was determined with in the total volume of 1 ml assay buffer containing 100 mM potassium phosphate, pH 7.0, 10 mM MgCl2, 1 mM dithiothreitol, 10 mM L-glutamine, 200 μM chorismate and varying the concentration of L-tryptophan between 0.1-10 mM L-tryptophan. Kinetic parameters and IC50 of AS were calculated after fitting the data to a non-linear regression program (GraFit).

The test system of a further data set is soy seed. The experiment in a line: Free amino acid analysis of soy seed (tryptophan content). It is filed as in vivo, Glycine max. Particulars: R1 soy seeds expressing the mutant protein. The procedure:
Amino Acid Extraction: About 50 mg of crushed soy seed (5 mg of Arabidopsis) material was placed in each centrifuge vial. One milliliter of 5% trichloroacetic acid was added to each sample (100 μl for Arabidopsis). The samples were vortexed, and allowed to sit, with agitation, at room temperature for 15 min. They were then microcentrifuged for 15 min at 14000 rpm. Some of the supernatant was then removed, placed in a HPLC vial and sealed. Samples were kept at 4° C. in the analysis queue.
Amino Acid Analysis: The reagents utilized for amino acid analysis included the OPA reagent (o-phthalaldehyde and 3-mercaptopropionic acid in borate buffer (Hewlett-Packard, PN 5061-3335)) where the borate buffer (0.4 N in water, pH 10.2). The analysis was performed using the Agilent 1100 series HPLC system as described in the Agilent Technical Publication, “Amino Acid Analysis Using Zorbax Eclipse-AAA Columns and the Agilent 1100 HPLC”, Mar. 17, 2000. First, 0.5 μl of the sample was derivatized with 2.5 μl of OPA reagent in 10 μl of borate buffer. Second, the derivative is injected onto a Eclipse XDB-C18 5 μm, 4.6×150 mm column using a flow rate of 1.2 ml/min. Amino acid concentrations were measured using fluorescence: excitation at 340 nm, emission at 450 nm. Elution was with a gradient of HPLC Buffers A and B according to Table A, where HPLC Buffer A was 40 mM Na2HPO4, pH=7.8 and HPLC Buffer B was 9:9:2::Methanol:Acetonitrile:Water.
Amino acid standards were prepared from the dry chemicals, using all amino acids of interest. Proline analysis required an additional derivatization step with 9-fluorenylmethyl-chloroformate (FMOC). Amino acid standards were also sometimes purchased in concentrations ranging from 0 to 100 μg/ml. Samples were reported in μg/g of seed powder.
Mature R1 seed is produced and analyzed for free amino acid content using fluorescence detection as described in Agilent Technologies Technical Bulletin REV14. Five seeds are chosen for single seed analysis from each event. […] The highest levels of tryptophan have a negative impact on germination.

Positions count from the first letter of the chain named. Where two headings read alike, the source gives them in different places.

B1: F298A (protein)
chain: MVTIIQDDGAETYETKGGIQVSRKRRPTDYANAIDNYIEKLDSHRGAVFSSNYEYPGRYTRWDTAIVDPPLGISCFGRKMWIEAYNGRGEVLLDFITEKLKATPDLTLGASSTRRLDLTVNEPDRVFTEEERSKIPTVFTALRAIVDLFYSSADSAIGLFGAFGYDLAFQFDAIKLSLARPEDQRDMVLFLPDEILVVDHYSAKAWIDRYDFEKDGMTTDGKSSDITPDPFKTTDTIPPKGDHRPGEYSELVVKAKESFRRGDLFEVVPGQKFMERCESNPSAISRRLKAINPSPYSAFINLGDQEYLVGASPEMFVRVSGRRIETCPISGTIKRGDDPIADSEQILKLLNSKKDESELTMCSDVDRNDKSRVCEPGSVKVIGRRQIEMYSRLIHTVDHIEGRLRDDMDAFDGFLSHAWAVTVTGAPKLWAMRFIEGHEKSPRAWYGGAIGMVGFNGDMNTGLTLRTIRIKDGIAEVRAGATLLNDSNPQEEEAETELKASAMISAIRDAKGTNSAATKRDAAKVGTGVKILLVDHEDSFVHTLANYFRQTGATVSTVRSPVAADVFDRFQPDLVVLSPGPGSPTDFDCKATIKAARARDLPIFGVCLGLQALAEAYGGELRQLAVPMHGKPSRIRVLEPGLVFSGLGKEVTVGRYHSIFADPATLPRDFIITAESEDGTIMGIEHAKEPVAAVQFHPESIMTLGQDAGMRMIENVVVHLTRKAKTKAA
modifications: An A. tumefaciens mutant.
With B1, the Km in data set [1] (pH 7.0, 200 μM chorismate, L-glutamine varied, read-out: Km^Gln) amounted to 100 µM; in data set [1] (pH 7.0, 10 mM L-glutamine, chorismate varied, read-out: Km^Cho), 9.2 µM. 5.5 µM corresponded to half-maximal inhibition in data set [1] (inhibition by L-tryptophan, 10 mM L-glutamine, 200 μM chorismate) (IC50). The catalytic constant (kcat) in data set [1] (purified enzyme from E. coli) was found to be 0.46 s⁻¹.

B2: S51C (protein)
chain: B1 chain with S51C, A298F
modifications: An A. tumefaciens mutant.
With B2, the amounts of tryptophan entry in the data set with soy seed is recorded as “very high amounts of tryptophan”.

B3: V48Y (protein)
chain: B1 chain with V48Y, A298F
modifications: An A. tumefaciens mutant.
As for B3, the amounts of tryptophan entry in the data set with soy seed is “very high amounts of tryptophan”.
